Here are results for four molecules from PMC4180279 (Biochemistry, 2014).

Residue numbers refer to the chain shown, from its start.

One assay addresses T1, NCS-1 (Homo sapiens, UniProt P62166).
T1 construct: His tag (TEV-cleavable) (N, cleaved yes); made in house; host or cells: Escherichia coli BL21(DE3)
Kind of assay: In vitro pull-down binding of NCS-1 to GST-PQ constructs, Western blot densitometry. Particulars: for average NCS-1 bound: 5 μM GST fusion protein, 5 μM NCS-1, 1 h, 4 °C, pH 7.4, normalized: NCS-1 bound to GST-PQ with Ca2+ = 100%, minimal binding without Ca2+ = 0%, mean of n = 3. Background: In western blotting, separated proteins are transferred to a membrane and probed.

The subject of a further assay is CaM. Kind of assay: In vitro pull-down binding of CaM to GST-PQ constructs, Western blot. Particulars: presence or absence of 1 μM free Ca2+. On the set-up: species or system human. An excerpt: DNA constructs and molecular biology GST-NCS-1[24] and NCS-1-mCherry[18] plasmids were as previously described. The coding sequence for human CaM was amplified by polymerase chain reaction (PCR) from oligo-dT(15)-primed HeLa cell RNA and reverse-transcribed first-strand cDNA template with the following primer pair (based on GenBank accession number M19311) containing restriction endonuclease sites (underlined) for subcloning into N-terminal GST tag vector pGex6P-1 (Amersham Biosciences): sense (BamHI), 5′-[…]-3′; antisense (XhoI), 5′-[…]-3′. GST-P/Q, encoding residues 1898–2035 of the rat P/Q channel α1 subunit (GenBank accession number NM_012918) was amplified by PCR from a rat brain single-strand cDNA template with the following primer pair containing restriction endonuclease sites (underlined) for subcloning into pGex6P-1: sense (BamHI), 5′-[…]-3′; antisense (XhoI), 5′-[…]-3′. GST-CBD (residues 1950–2035) of the rat P/Q channel α1 subunit was amplified by PCR from the GST-P/Q template using the P/Q reverse primer and a sense primer containing a BamHI site (underlined) for subsequent subcloning into pGex6P-1 (5′-[…]-3′). GST-P/Q^IM→EE was generated by site-directed mutagenesis of the GST-P/Q plasmid using the QuikChange reagents and protocol (Agilent Technologies) and the following primer pair: sense, 5′-[…]-3′; antisense, 5′-[…]-3′.
For the In vitro protein binding assays, 5 μM GST fusion protein (GST-P/Q, GST-P/Q^IM→EE, or GST-CBD) was immobilized onto 30 μL of glutathione-agarose resin (Thermo Scientific) that had been prewashed in binding buffer (BB) [150 mM KCl, 20 mM HEPES (pH 7.4), 10% (v/v) glycerol, 5 mM NTA, 5 mM EGTA, 1 mM DTT, and 0.1% (v/v) NP-40] or BB supplemented with 1 μM free Ca^2+ (BB+Ca^2+) by incubation for 30 min with constant agitation at 4 °C. […]
Nitrocellulose filters were blocked by incubation in a blocking solution [3% (w/v) skim milk powder in PBS] for 1 h at room temperature. […] Densitometry analysis of developed Western blots was performed using Quantity-1 (Bio-Rad). […]

The next assay concerns HeLa cells. Kind of assay: Localization of fluorescently tagged proteins in HeLa cells, confocal imaging, puncta scoring. In kind it is cell-based. The conditions noted are these: for cells with puncta: 24 h post-transfection, means ± SEM. An excerpt: Myristoylated PQ (residues 1898–2035, ^myrPQ-YFP) was constructed as follows. A DNA fragment encoding the myristoylation sequence taken from ref ([25]) was inserted between the XhoI and HindIII sites of pEYFP-N1 (Clontech) to generate p^myrEYFP-N1. PQ^1898–2035 was amplified by PCR from the existing pGex template with the following primer pair containing restriction endonuclease sites (underlined) for subsequent subcloning into p^myrEYFP-N1: sense (HindIII), 5′-ATAT AAGCTTAAGTCCACGGACCTGACAGTG-3′; antisense (SacII), 5′-ATAT CCGCGGGGGGAGGTAGTGTTCGCTGTC-3′. All constructs were verified by dideoxy sequencing (The Sequencing Service, University of Dundee, Dundee, U.K.).
HeLa cells were cultured in DMEM supplemented with 10% (v/v) fetal bovine serum, 1% (v/v) penicillin/streptomycin, and 1% (v/v) nonessential amino acids. All cells were maintained in a humidified 95% air/5% CO2 atmosphere at 37 °C. Cells were plated onto sterile 13 mm round coverslips at a density of 0.25 × 10^6 cells/well. After 24 h, cells were transiently transfected with the indicated expression vectors using GeneJuice transfection reagent (Novagen) according to the manufacturer’s protocol. For single and double transfections, 1 μg of each plasmid was used.
Twenty-four hours post-transfection, cells on coverslips were washed with phosphate-buffered saline [137 mM NaCl, 2.7 mM KCl, 10 mM Na2PO4, and 2 mM NaH2PO4 (pH 7.4)] and then fixed with 4% (v/v) formaldehyde in PBS for 6 min at room temperature. Coverslips were subsequently air-dried and mounted onto microscope slides using Prolong antifade glycerol (Life Technologies). Fixed cells were imaged using a Leica TCS-SP2 confocal system (Leica Microsystems, Heidelberg, Germany) with a pinhole set to 1 Airy unit and a 63× oil immersion objective with a numerical aperture of 1.3. Images were exported as TIFF files and compiled, processed, and analyzed with ImageJ and CorelDraw X6 applications.

[1] abbreviates: without Ca2+ (5 mM EGTA, 5 mM NTA).

T1 sequence (P62166 whole entry, species assumed): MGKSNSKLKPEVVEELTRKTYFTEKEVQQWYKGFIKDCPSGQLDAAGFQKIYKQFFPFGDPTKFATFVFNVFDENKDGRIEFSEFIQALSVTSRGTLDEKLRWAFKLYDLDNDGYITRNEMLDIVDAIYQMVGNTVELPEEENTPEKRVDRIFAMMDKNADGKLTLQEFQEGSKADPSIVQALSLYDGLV

B1: GST-CBD: GST-tagged CaM-binding domain, residues 1950–2035 of the rat P/Q channel α1 subunit (protein, UniProt P54282 1950-2035, looked up, fragment)
chain: EGGPSQNALPSTQLDPGGGLMAQESSMKESPSWVTQRAQEMFQKTGTWSPERGPPIDMPNSQPNSQSVEMREMGTDGYSDSEHYLP
modifications: GST tag
In the case of B1, the “average NCS-1 bound” value in the assay with NCS-1 (setting [1]) is 4.9%. Also, in the assay with CaM, the “CaM binding (qualitative)” value is reported as “no detectable binding”.

B2: GST-PQ: GST-tagged residues 1898–2035 of the rat P/Q channel α1 subunit, encompassing IQ motif and CBD (protein, UniProt P54282 1898-2035, looked up, fragment)
chain: KSTDLTVGKIYAAMMIMEYYRQSKAKKLQAMREEQNRTPLMFQRMEPPSPTQEGGPSQNALPSTQLDPGGGLMAQESSMKESPSWVTQRAQEMFQKTGTWSPERGPPIDMPNSQPNSQSVEMREMGTDGYSDSEHYLP
modifications: GST tag
notes: GST-tagged residues 1898–2035 of the rat P/Q channel α1 subunit, encompassing IQ motif and CBD
Take B2: the “NCS-1 binding (qualitative)” value in the assay with NCS-1 (presence or absence of 1 μM free Ca2+, Western blot) is given as “Ca^2+-dependent binding”. The “average NCS-1 bound” value with NCS-1 (with Ca2+ (1 μM free Ca2+)) stood at 100%; with NCS-1 (setting [1]), 31.2%. Besides, in the assay with CaM, the “CaM binding (qualitative)” value is given as “Ca^2+-dependent binding”.

B3: ^myrPQ-YFP: C-terminally YFP-tagged P/Q 1898–2035 with N-terminal myristoylation consensus sequence (protein, UniProt P54282 1898-2035, looked up, fragment)
chain: B2 chain
modifications: N-terminal myristoylation sequence, C-terminal YFP tag
Turning to B3, the cellular localization result in the assay with HeLa cells (HeLa cells, without myrPQ-YFP puncta) is “plasma membrane and/or large cytosolic puncta”. The “colocalization of soluble mCherry with myrPQ-YFP” value with HeLa cells (control cotransfection with soluble mCherry, data not shown) is “no colocalization”. Moreover, the cells with puncta with HeLa cells (control myrPQ-YFP + mCherry, three independent experiments) came to 43.6 ± 3%; with HeLa cells (cotransfected NCS-1-mCherry + myrPQ-YFP, four independent experiments), 39.5 ± 9.2%.

B4: GST^IM→EE: GST-PQ with IM residues at positions 1913 and 1914 mutated to glutamic acid (protein, UniProt P54282 1898-2035, looked up, variant I1913E M1914E)
chain: B2 chain with I16E, M17E
modifications: GST tag
notes: GST-PQ with IM residues at positions 1913 and 1914 mutated to glutamic acid
B4: the “average NCS-1 bound” value with NCS-1 (setting [1]) is reported as 2.8%. Moreover, the “CaM binding (qualitative)” value in the assay with CaM was “no detectable binding”.
